Assay results published in publication PMC9482650, “Quantitative fragmentomics allow affinity mapping of interactomes” (Nature Communications, 2022).

Assays:
Assay in all cases: holdup assay
Set-up in all cases: key: below the threshold = too weak to quantify, mostly under pKd 3.1 to 4
Conditions in all cases: plain residues with an end cap or a label only (N-terminal biotin on a linker: ado-ado)
APBA2_2, Q99767 = target: T1, APBA2_2, Q99767
T1 sequence (Q99767 654-744, limits assumed, looked up): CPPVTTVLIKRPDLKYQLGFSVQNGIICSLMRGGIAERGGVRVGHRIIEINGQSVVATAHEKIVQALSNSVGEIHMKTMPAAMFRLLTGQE

CARD11, Q9BXL7 = target: T2, CARD11, Q9BXL7
T2 sequence (Q9BXL7 662-765, limits assumed, looked up): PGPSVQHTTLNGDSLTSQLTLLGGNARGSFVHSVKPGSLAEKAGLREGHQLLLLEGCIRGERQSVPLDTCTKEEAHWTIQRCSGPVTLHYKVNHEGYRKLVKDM

CASK, O14936 = target: CASK, O14936
Chain of CASK, O14936 (O14936 487-570): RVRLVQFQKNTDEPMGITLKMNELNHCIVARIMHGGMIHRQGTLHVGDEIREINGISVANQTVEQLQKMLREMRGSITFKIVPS

DFNB31_2, Q9P202 = target: T3, DFNB31_2, Q9P202
T3 sequence (Q9P202 274-371, limits assumed, looked up): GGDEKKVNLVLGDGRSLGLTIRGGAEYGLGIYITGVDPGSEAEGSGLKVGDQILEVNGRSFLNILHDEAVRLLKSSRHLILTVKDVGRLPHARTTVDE

DLG3_2, Q92796 = target: T4, DLG3_2, Q92796
T4 sequence (Q92796 221-321, limits assumed, looked up): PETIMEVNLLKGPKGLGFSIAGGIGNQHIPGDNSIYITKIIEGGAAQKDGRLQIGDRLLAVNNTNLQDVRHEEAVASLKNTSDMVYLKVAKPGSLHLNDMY

DLG3_3, Q92796 = target: T5, DLG3_3, Q92796
T5 sequence (Q92796 374-475, limits assumed, looked up): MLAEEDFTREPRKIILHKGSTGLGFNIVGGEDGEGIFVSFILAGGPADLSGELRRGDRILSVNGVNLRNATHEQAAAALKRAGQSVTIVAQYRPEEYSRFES

DLG4_1, P78352 = target: DLG4_1, P78352
Chain of DLG4_1, P78352 (P78352 62-152): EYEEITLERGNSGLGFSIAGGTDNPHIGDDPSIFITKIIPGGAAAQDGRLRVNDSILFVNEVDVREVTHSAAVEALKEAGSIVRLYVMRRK

FRMPD2_3, Q68DX3 = target: FRMPD2_3, Q68DX3
Chain of FRMPD2_3, Q68DX3 (Q68DX3 1073-1166): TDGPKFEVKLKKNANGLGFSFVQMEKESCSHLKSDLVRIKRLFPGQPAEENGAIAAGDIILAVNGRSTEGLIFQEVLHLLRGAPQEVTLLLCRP

GRIP2_3, Q9C0E4 = target: GRIP2_3, Q9C0E4
Chain of GRIP2_3, Q9C0E4 (Q9C0E4 238-339): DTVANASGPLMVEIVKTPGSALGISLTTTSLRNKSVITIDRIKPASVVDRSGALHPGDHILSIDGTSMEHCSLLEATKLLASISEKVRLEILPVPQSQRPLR

GRIP2_4, Q9C0E4 = target: GRIP2_4, Q9C0E4
Chain of GRIP2_4, Q9C0E4 (Q9C0E4 446-548): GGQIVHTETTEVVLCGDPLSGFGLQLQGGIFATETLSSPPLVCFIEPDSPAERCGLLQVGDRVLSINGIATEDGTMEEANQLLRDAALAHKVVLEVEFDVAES

GRIP2_5, Q9C0E4 = target: GRIP2_5, Q9C0E4
Chain of GRIP2_5, Q9C0E4 (Q9C0E4 544-642): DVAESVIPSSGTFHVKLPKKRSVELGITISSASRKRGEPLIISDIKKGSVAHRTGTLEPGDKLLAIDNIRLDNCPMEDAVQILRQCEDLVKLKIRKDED

GRIP2_6, Q9C0E4 = target: GRIP2_6, Q9C0E4
Chain of GRIP2_6, Q9C0E4 (Q9C0E4 648-740): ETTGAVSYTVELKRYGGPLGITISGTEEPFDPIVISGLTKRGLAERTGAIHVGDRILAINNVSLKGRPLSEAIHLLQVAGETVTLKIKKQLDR

IL16_3, Q14005 = target: IL16_3, Q14005
Chain of IL16_3, Q14005 (Q14005 1107-1207): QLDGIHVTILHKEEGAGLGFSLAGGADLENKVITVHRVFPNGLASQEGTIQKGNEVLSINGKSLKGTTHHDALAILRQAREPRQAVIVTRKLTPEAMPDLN

Inadl_1, Q8NI35 = target: Inadl_1, Q8NI35
Chain of Inadl_1, Q8NI35 (Q8NI35 113-229): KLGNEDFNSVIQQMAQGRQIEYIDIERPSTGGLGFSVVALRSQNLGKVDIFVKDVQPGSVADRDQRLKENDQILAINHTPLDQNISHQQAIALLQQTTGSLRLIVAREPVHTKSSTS

Inadl_8, Q8NI35 = target: Inadl_8, Q8NI35
Chain of Inadl_8, Q8NI35 (Q8NI35 1425-1530): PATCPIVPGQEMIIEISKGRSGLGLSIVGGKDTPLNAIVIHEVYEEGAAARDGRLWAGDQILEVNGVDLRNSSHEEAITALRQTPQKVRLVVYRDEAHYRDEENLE

LDB3, O75112 = target: LDB3, O75112
Chain of LDB3, O75112 (O75112 1-94): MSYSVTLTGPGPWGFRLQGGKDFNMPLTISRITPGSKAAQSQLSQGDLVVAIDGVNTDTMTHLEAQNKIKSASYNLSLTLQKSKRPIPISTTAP

LIMK2, P53671 = target: LIMK2, P53671
Chain of LIMK2, P53671 (P53671 143-248): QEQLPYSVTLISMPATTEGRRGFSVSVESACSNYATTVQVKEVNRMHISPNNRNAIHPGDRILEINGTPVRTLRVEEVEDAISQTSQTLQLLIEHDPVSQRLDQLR

LNX2_2, Q8N448 = target: T6, LNX2_2, Q8N448
T6 sequence (Q8N448 334-432, limits assumed, looked up): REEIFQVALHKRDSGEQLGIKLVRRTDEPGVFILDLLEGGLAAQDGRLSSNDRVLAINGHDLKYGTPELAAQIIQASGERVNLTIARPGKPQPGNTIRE

MAGI2_4, Q86UL8 = target: MAGI2_4, Q86UL8
Chain of MAGI2_4, Q86UL8 (Q86UL8 772-865): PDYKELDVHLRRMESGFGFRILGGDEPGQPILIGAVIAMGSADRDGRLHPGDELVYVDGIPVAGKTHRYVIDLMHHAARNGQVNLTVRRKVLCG

MAGI2_6, Q86UL8 = target: MAGI2_6, Q86UL8
Chain of MAGI2_6, Q86UL8 (Q86UL8 1141-1229): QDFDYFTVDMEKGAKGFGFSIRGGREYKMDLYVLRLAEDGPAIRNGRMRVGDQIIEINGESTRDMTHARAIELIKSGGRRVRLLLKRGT

MAGI3_2, Q5TCQ9 = target: MAGI3_2, Q5TCQ9
Chain of MAGI3_2, Q5TCQ9 (Q5TCQ9 398-503): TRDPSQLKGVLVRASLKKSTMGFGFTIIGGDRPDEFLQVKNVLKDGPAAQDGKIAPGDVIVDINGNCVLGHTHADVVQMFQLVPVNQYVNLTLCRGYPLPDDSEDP

MPDZ_12, O75970 = target: T7, MPDZ_12, O75970
T7 sequence (O75970 1857-1958, limits assumed, looked up): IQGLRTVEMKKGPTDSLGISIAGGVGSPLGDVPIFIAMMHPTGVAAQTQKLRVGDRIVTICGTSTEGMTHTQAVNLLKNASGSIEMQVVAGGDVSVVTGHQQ

MPP2, Q14168 = target: T8, MPP2, Q14168
T8 sequence (Q14168 180-250, limits assumed, looked up): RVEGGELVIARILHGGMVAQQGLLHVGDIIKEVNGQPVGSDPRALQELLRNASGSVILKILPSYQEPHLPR

PDZD7_3, Q9H5P4 = target: T9, PDZD7_3, Q9H5P4
T9 sequence (Q9H5P4 857-944, limits assumed, looked up): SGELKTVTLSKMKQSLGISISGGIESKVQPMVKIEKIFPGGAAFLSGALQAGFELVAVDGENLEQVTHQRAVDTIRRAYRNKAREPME

PTPN3, P26045 = target: PTPN3, P26045
Chain of PTPN3, P26045 (P26045 505-587): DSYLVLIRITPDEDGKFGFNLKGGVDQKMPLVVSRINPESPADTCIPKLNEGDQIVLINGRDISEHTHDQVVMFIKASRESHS

SHANK1, Q9Y566 = target: T10, SHANK1, Q9Y566
T10 sequence (Q9Y566 658-767, limits assumed, looked up): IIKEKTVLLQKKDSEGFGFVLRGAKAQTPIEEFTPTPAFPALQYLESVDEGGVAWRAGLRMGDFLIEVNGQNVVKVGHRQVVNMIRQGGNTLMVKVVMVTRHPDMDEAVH

TJP1_3, Q07157 = target: TJP1_3, Q07157
Chain of TJP1_3, Q07157 (Q07157 416-512): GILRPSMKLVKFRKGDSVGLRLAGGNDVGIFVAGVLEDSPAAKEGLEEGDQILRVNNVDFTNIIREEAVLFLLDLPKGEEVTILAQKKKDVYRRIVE

TJP3_3, O95049 = target: T11, TJP3_3, O95049
T11 sequence (O95049 375-456, limits assumed, looked up): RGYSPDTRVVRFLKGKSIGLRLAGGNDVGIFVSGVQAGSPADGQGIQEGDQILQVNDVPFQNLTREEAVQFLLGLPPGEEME

Binder | pKd (APBA2_2, Q99767) | pKd (CARD11, Q9BXL7) | pKd (CASK, O14936) | pKd (DFNB31_2, Q9P202) | pKd (DLG3_2, Q92796) | pKd (DLG3_3, Q92796) | pKd (DLG4_1, P78352) | pKd (FRMPD2_3, Q68DX3) | pKd (GRIP2_3, Q9C0E4) | pKd (GRIP2_4, Q9C0E4) | pKd (GRIP2_5, Q9C0E4) | pKd (GRIP2_6, Q9C0E4) | pKd (IL16_3, Q14005) | pKd (Inadl_1, Q8NI35) | pKd (Inadl_8, Q8NI35) | pKd (LDB3, O75112) | pKd (LIMK2, P53671) | pKd (LNX2_2, Q8N448) | pKd (MAGI2_4, Q86UL8) | pKd (MAGI2_6, Q86UL8) | other results
VKPQVSESKL [ACOT8, O14734] | below the threshold | below the threshold | below the threshold | 3.62 | 4.17 | below the threshold | below the threshold | below the threshold | below the threshold | below the threshold | below the threshold | below the threshold | below the threshold | below the threshold | below the threshold | 3.6 | below the threshold | below the threshold | below the threshold | below the threshold | pKd (MAGI3_2, Q5TCQ9): 3.59; pKd (MPDZ_12, O75970): below the threshold; pKd (MPP2, Q14168): below the threshold; pKd (PDZD7_3, Q9H5P4): 4.15; pKd (PTPN3, P26045): 4.63; pKd (SHANK1, Q9Y566): 4.01; pKd (TJP1_3, Q07157): below the threshold; pKd (TJP3_3, O95049): below the threshold
FNSYSLTGYV [CLDN2, P57739] | below the threshold | below the threshold | below the threshold | below the threshold | below the threshold | below the threshold | 3.51 | 4.28 | below the threshold | below the threshold | below the threshold | below the threshold | below the threshold | below the threshold | 4.27 | below the threshold | below the threshold | 4.98 | 4.24 | 3.72 | pKd (MAGI3_2, Q5TCQ9): 4.21; pKd (MPDZ_12, O75970): below the threshold; pKd (MPP2, Q14168): below the threshold; pKd (PDZD7_3, Q9H5P4): below the threshold; pKd (PTPN3, P26045): below the threshold; pKd (SHANK1, Q9Y566): below the threshold; pKd (TJP1_3, Q07157): 3.63; pKd (TJP3_3, O95049): 4.31
